The results in this text go back to patent US20210253718A1 (MODMAB THERAPEUTICS, published 2021).

For experiment [1], the target named is T1, FZD8 cysteine-rich domain (CRD), MYC-tagged and GPI-anchored on CHO cells (human, UniProt Q498S8 31-155 (rat entry), GPI anchor).
T1 construct: also called FZD8 CRD; CHO-myc-FZDGPI; not shown: MYC tag and GPI anchor signal
T1 sequence: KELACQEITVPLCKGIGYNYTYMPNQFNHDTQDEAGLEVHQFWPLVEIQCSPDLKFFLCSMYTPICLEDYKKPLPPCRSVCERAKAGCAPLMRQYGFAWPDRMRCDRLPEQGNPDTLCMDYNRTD
Briefly: flow cytometry, CHO-CRD cells. (A flow cytometer gives signals particle by particle.)

Experiment [2] deals with T2, FZD10 cysteine-rich domain (CRD), MYC-tagged and GPI-anchored on CHO cells (human, UniProt Q9ULW2 30-156, GPI anchor).
T2 construct: also called FZD10 CRD; CHO-myc-FZDGPI; not shown: MYC tag and GPI anchor signal
T2 sequence: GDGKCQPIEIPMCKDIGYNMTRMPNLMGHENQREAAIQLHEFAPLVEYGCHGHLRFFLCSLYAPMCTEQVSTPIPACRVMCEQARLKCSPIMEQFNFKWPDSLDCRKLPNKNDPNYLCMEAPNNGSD
Kind of experiment: flow cytometry, CHO-CRD cells.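 Also: flow cytometry of Fab binding to CHO cells overexpressing a Frizzled CRD, with binding defined as median fluorescence over twice that of CHO cells lacking any Frizzled CRD.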

Experiment [3] addresses FZD2 cysteine-rich domain (CRD), MYC-tagged and GPI-anchored on CHO cells (human, UniProt Q14332 35-161). Kind of experiment: flow cytometry, CHO-CRD cells.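 Also: flow cytometry of Fab binding to CHO cells overexpressing a Frizzled CRD, with binding defined as median fluorescence over twice that of CHO cells lacking any Frizzled CRD.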
Procedure: (§1) Binding was measured via flow cytometry analysis of CHO cells overexpressing CRD of FZD1, FZD2, FZD3, FZD4, FZD5, FZD6, FZD7, FZD8, FZD9 or FZD10. Median fluorescence values are shown.
For experiment [4], the target named is T3, FZD5 cysteine-rich domain (CRD), MYC-tagged and GPI-anchored on CHO cells (human, UniProt Q13467 29-156, GPI anchor).
T3 construct: also called FZD5 CRD; CHO-myc-FZDGPI; not shown: MYC tag and GPI anchor signal
T3 sequence: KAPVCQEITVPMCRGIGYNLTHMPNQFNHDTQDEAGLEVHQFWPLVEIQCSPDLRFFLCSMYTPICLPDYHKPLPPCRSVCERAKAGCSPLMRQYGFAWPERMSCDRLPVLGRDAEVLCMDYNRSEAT
Kind of experiment: flow cytometry, CHO-CRD cells.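 Also: flow cytometry of Fab binding to CHO cells overexpressing a Frizzled CRD, with binding defined as median fluorescence over twice that of CHO cells lacking any Frizzled CRD.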

The target in experiment [5] is T4, FZD3 cysteine-rich domain (CRD), MYC-tagged and GPI-anchored on CHO cells (human, UniProt Q9NPG1 24-150, GPI anchor).
T4 construct: domain: cysteine-rich domain (CRD); also called FZD3 CRD; CHO-myc-FZDGPI; not shown: MYC tag and GPI anchor signal
T4 sequence (looked up): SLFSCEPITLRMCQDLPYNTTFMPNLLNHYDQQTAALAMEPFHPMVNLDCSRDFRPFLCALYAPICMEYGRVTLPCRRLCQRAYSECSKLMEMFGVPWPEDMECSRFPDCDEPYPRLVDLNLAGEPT
Briefly: flow cytometry, CHO-CRD cells.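 Also: flow cytometry of Fab binding to CHO cells overexpressing a Frizzled CRD, with binding defined as median fluorescence over twice that of CHO cells lacking any Frizzled CRD.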

The target of experiment [6] is T5, FZD9 cysteine-rich domain (CRD), MYC-tagged and GPI-anchored on CHO cells (human, UniProt O00144 35-161, GPI anchor).
T5 construct: also called FZD9 CRD; CHO-myc-FZDGPI; not shown: MYC tag and GPI anchor signal
T5 sequence: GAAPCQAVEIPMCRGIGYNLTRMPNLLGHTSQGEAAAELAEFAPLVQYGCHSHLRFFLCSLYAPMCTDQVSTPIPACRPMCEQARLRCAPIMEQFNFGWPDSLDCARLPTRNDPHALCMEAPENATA
Briefly: flow cytometry, CHO-CRD cells.

Experiment [7] concerns the target FZD1 cysteine-rich domain (CRD), MYC-tagged and GPI-anchored on CHO cells (human). Briefly: flow cytometry, CHO-CRD cells.
Procedure: as §1
For experiment [8], the target named is FZD7 cysteine-rich domain (CRD), MYC-tagged and GPI-anchored on CHO cells (human, UniProt O75084 45-169). Kind of experiment: flow cytometry, CHO-CRD cells.
Procedure: as §1
The target of experiment [9] is T6, FZD4 cysteine-rich domain (CRD), MYC-tagged and GPI-anchored on CHO cells (human, UniProt Q9ULV1 42-167, GPI anchor).
T6 construct: also called FZD4 CRD; CHO-myc-FZDGPI; not shown: MYC tag and GPI anchor signal
T6 sequence: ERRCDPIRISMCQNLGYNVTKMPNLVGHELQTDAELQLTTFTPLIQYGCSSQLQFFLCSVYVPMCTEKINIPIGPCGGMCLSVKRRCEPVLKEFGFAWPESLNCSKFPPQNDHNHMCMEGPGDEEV
Briefly: flow cytometry, CHO-CRD cells.

Experiment [10] concerns the target T7, FZD6 cysteine-rich domain (CRD), MYC-tagged and GPI-anchored on CHO cells (human, UniProt O60353 20-146, GPI anchor).
T7 construct: also called FZD6 CRD; CHO-myc-FZDGPI; not shown: MYC tag and GPI anchor signal
T7 sequence: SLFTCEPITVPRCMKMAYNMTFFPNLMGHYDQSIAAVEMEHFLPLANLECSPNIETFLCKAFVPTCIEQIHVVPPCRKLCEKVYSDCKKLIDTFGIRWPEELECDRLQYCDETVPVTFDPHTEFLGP
Briefly: flow cytometry, CHO-CRD cells.

The target in experiment [11] is T2, FZD10 cysteine-rich domain (CRD), …. Briefly: immunofluorescence, CHO-CRD cells.
For experiment [12], the target named is T4, FZD3 cysteine-rich domain (CRD), …. Briefly: immunofluorescence, CHO-CRD cells.
Experiment [13] addresses T5, FZD9 cysteine-rich domain (CRD), …. Kind of experiment: immunofluorescence, CHO-CRD cells.
In experiment [14] the target is T6, FZD4 cysteine-rich domain (CRD), …. Kind of experiment: immunofluorescence, CHO-CRD cells.
The target in experiment [15] is T7, FZD6 cysteine-rich domain (CRD), …. Kind of experiment: immunofluorescence, CHO-CRD cells.

B1: Fab-2898 (Fab, V domains shown)
VH: EVQLVESGGGLVQPGGSLRLSCAASGFNIYSYSMHWVRQAPGKGLEWVASIYSSSGSTSYADSVKGRFTISADTSKNTAYLQMNSLRAEDTAVYYCARAVWGLDYWGQGTLVTVSS
VL: DIQMTQSPSSLSASVGDRVTITCRASQSVSSAVAWYQQKPGKAPKLLIYSASSLYSGVPSRFSGSRSGTDFTLTISSLQPEDFATYYCQQWWGYYSLITFGQGTKVEIK
notes: Fab; also called Fv-2898
B1: the median fluorescence was determined as 12.7 in [1]; 4.26 in experiment [2]; 13.5 in [3]; 32 in experiment [4]; 5.05 in experiment [5]; 4.57 in [6]. Also, the median fluorescence was 14.9 in [7], 36.9 in [8], 6.26 in experiment [9] and 4.49 in [10]. For the same molecule, the binding result in experiment [11], in experiment [12], in [13], in experiment [14] and in experiment [15] was “no binding” throughout.

B2: Fab-2913 (Fab, V domains shown)
VH: EVQLVESGGGLVQPGGSLRLSCAASGFNISYSSIHWVRQAPGKGLEWVASIYPYSSSTSYADSVKGRFTISADTSKNTAYLQMNSLRAEDTAVYYCARYGYYGLDYWGQGTLVTVSS
VL: DIQMTQSPSSLSASVGDRVTITCRASQSVSSAVAWYQQKPGKAPKLLIYSASSLYSGVPSRFSGSRSGTDFTLTISSLQPEDFATYYCQQWGVSHYLFTFGQGTKVEIK
notes: Fab; also called Fv-2913
In the case of B2, the median fluorescence in [2] turned out to be 3.75; in [3], 14.1; in experiment [4], 27.1; in [5], 4.61; in experiment [6], 3.79; in experiment [7], 17.5. Besides, the median fluorescence was 34.9 in experiment [8], 5.57 in experiment [9] and 3.82 in experiment [10]. Also, the binding result in [11], in experiment [12], in [13], in experiment [14] and in experiment [15] was “no binding” in each case.

B3: Fab-2914 (Fab, V domains shown)
VH: EVQLVESGGGLVQPGGSLRLSCAASGFNIYYSYMHWVRQAPGKGLEWVASIYPSSSSTSYADSVKGRFTISADTSKNTAYLQMNSLRAEDTAVYYCARGAMDYWGQGTLVTVSS
VL: DIQMTQSPSSLSASVGDRVTITCRASQSVSSAVAWYQQKPGKAPKLLIYSASSLYSGVPSRFSGSRSGTDFTLTISSLQPEDFATYYCQQWYYGSLITFGQGTKVEIK
notes: Fab; also called Fv-2914
Regarding B3, the median fluorescence was found to be 8.9 in [1]; 3.72 in experiment [2]; 18.9 in experiment [3]; 31.9 in [4]; 4.61 in [5]; 3.82 in experiment [6]. For the same molecule, the median fluorescence was determined as 40.3 in experiment [7], 18.4 in experiment [8], 5.52 in experiment [9] and 3.59 in [10]. Moreover, the binding result in [11], in [12], in experiment [13], in [14] and in [15] was “no binding” throughout.

B4: Fab-2915 (Fab, V domains shown)
VH: EVQLVESGGGLVQPGGSLRLSCAASGFNIYYYSMHWVRQAPGKGLEWVASIYSSYGYTSYADSVKGRFTISADTSKNTAYLQMNSLRAEDTAVYYCARGYHYYPYYSGLDYWGQGTLVTVSS
VL: DIQMTQSPSSLSASVGDRVTITCRASQSVSSAVAWYQQKPGKAPKLLIYSASSLYSGVPSRFSGSRSGTDFTLTISSLQPEDFATYYCQQAYYHSLITFGQGTKVEIK
notes: Fab; also called Fv-2915
For B4, the median fluorescence in experiment [2] amounted to 3.92; in experiment [3], 22.1; in experiment [5], 5.05; in [6], 3.92; in experiment [7] it was 36.9; in [8], 40.7. Further, the median fluorescence in experiment [9] was found to be 5.99; in [10], 3.37. For the same molecule, the binding result in [11], in experiment [12], in experiment [13], in [14] and in experiment [15] was “no binding” throughout.

B5: Fab-2901 (Fab, V domains shown)
VH: EVQLVESGGGLVQPGGSLRLSCAASGFNISYSYMHWVRQAPGKGLEWVASIYSYSSYTYYADSVKGRFTISADTSKNTAYLQMNSLRAEDTAVYYCARSWYYWSPSSGMDYWGQGTLVTVSS
VL: DIQMTQSPSSLSASVGDRVTITCRASQSVSSAVAWYQQKPGKAPKLLIYSASSLYSGVPSRFSGSRSGTDFTLTISSLQPEDFATYYCQQGGFLITFGQGTKVEIK
notes: Fab; also called Fv-2901
B5: the median fluorescence came to 10.9 in [1]; 3.85 in experiment [2]; 32.8 in experiment [4]; 4.1 in experiment [5]; 3.25 in experiment [6]; 17.1 in experiment [7]. The median fluorescence worked out at 47 in experiment [8], 5.09 in experiment [9] and 3.62 in experiment [10]. The binding result in experiment [11], in [12], in [13], in [14] and in experiment [15] was “no binding” each time.
